From patent publication US20020061552A1 (published 2002)

T1: Myc-tagged mNkd protein, in vitro translated (mouse, UniProt Q99MH6 1-471, labelled with 35S-methionine)
T1 construct: Made with the TNT coupled reticulocyte lysate system in the presence of 35S-methionine; also called Myc-mNkd; 35S-mNkd; not shown: Myc tag
T1 sequence: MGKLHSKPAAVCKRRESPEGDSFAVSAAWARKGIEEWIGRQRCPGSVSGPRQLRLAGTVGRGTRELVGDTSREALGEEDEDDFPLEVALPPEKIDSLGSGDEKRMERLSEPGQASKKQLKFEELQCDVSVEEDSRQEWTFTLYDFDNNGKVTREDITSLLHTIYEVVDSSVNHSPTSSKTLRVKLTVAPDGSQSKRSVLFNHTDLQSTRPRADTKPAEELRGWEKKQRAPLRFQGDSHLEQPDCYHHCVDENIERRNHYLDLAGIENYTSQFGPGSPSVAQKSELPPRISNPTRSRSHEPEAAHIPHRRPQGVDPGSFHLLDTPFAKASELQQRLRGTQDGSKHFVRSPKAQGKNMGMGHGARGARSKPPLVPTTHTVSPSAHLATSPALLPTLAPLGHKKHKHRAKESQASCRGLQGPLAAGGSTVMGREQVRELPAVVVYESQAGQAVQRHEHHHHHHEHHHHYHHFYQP

B1: GST fusion of the PDZ domain of Drosophila Dvl (other, UniProt P51140 252-324, looked up)
chain: TVSINMEAVNFLGISIVGQSNRGGDGGIYVGSIMKGGAVALDGRIEPGDMILQVNDVNFENMTNDEAVRVLRE
notes: domain: PDZ; also called PDZ domain alone; not shown: glutathione-S-transferase (GST)

Columns and labels:
[1] = target: endogenous Dvl of HEK293 cells; test: cell-based or functional assay
[2] = target: T1, Myc-tagged mNkd protein, in vitro …; test: GST pull-down, electrophoresis and autoradiography
Source text: The immunocomplexes were subjected to electrophoresis and autoradiography.

Molecule | inhibition of the activation of the LEF-1 luciferase reporter by Wnt in HEK 293 cells [1] [%] | binding result [2]
Xpress tagged mNkd (from UniProt Q99MH6 1-471) | 75 | –
B1 | – | no binding
